What was measured:
Hfq WT = target: T1, Hfq WT (Acinetobacter baumannii, UniProt V5VC31 1-168); test: fluorescence anisotropy; Kd printed only in figure; TNK buffer: 10 mM Tris-HCl pH 7.5, 50 mM NaCl, 50 mM KCl; 50 nM D16-FAM; 30 °C; 100 µl; conditions: protein: recombinant; tags: none (tag-free, stop codon in pET-28); chain copies: 6; label: 5'-FAM
T1 sequence: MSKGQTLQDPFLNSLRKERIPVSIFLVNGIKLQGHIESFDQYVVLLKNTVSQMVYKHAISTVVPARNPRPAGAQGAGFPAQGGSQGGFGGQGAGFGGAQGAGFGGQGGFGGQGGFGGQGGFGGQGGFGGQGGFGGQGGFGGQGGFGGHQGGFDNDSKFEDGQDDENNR

Hfq66 = target: T2, Hfq66 (Acinetobacter baumannii, UniProt V5VC31 1-66); test: fluorescence anisotropy; higher affinity (lower Kd) than WT; Kd printed only in figure; TNK buffer: 10 mM Tris-HCl pH 7.5, 50 mM NaCl, 50 mM KCl; 50 nM D16-FAM; 30 °C; 100 µl; conditions: protein: recombinant; tags: none (tag-free); chain copies: 6; label: 5'-FAM
T2 sequence: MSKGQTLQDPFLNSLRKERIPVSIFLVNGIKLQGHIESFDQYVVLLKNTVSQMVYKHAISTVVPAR

CGAAUUUUUUAAGUGC (ssRNA) [D16-FAM]: binds (Hfq WT); binds (Hfq66).

Reference: article PMC11617691, “‘GGFGGQ’ repeats in Hfq of Acinetobacter baumannii are essential for nutrient utilization and virulence”
